# Measurements taken from PMC4483278.
# Molecular target: Bax (human (endogenous in U-2 OS and Sa OS)) (UniProt Q07812)
# Assay: co-IP
# Bax (human (endogenous in U-2 OS and Sa OS)), sequence (Q07812 whole entry): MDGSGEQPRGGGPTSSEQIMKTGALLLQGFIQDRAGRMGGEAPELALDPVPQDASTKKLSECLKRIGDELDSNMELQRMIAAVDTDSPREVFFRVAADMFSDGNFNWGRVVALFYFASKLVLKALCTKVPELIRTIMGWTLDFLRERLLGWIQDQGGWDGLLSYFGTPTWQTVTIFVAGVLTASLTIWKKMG
# Ku70, sequence (P12956 whole entry): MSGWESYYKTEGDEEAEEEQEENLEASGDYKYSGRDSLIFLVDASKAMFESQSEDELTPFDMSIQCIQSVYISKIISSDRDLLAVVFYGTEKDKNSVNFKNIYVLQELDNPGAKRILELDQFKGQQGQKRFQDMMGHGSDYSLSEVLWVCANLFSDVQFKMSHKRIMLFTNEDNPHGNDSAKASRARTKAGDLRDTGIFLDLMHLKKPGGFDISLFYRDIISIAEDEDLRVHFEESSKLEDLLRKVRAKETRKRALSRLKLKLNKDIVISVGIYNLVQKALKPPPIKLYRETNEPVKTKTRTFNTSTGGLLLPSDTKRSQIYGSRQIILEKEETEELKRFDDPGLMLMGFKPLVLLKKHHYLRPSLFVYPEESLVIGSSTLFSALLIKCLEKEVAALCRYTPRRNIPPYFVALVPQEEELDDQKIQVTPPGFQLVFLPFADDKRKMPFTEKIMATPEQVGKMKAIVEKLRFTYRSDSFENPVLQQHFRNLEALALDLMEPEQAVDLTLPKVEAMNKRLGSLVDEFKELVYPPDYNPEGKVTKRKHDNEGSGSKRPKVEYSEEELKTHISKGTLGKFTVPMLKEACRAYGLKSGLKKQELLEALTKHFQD
substance,measurement,value
Ku70 (from UniProt P12956 1-609) (natural protein),percent of Ku70 remaining bound to Bax after sCLU depletion,< 25%
